From paper doi:10.1101/2023.11.22.568361 (bioRxiv, 2023)

Biological target: the molecule itself
Assay: AUC

B1: isolated LRS peptide (N:210–246) (peptide)
peptide: MAGNGGDAALALLLLDRLNQLESKMSGKGQQQQGQTV
  binding result: binds
